# Assay results: patent US20150056134A1 (MABVAX THERAPEUTICS, published 2015)
# Target: T1, Neutral Avidin (UniProt P02701 25-152)
# T1 construct: Control coating without captured biotinylated sLe^a; also called NAV; Neutr-Avidin
# Experiment: ELISA, hybridoma supernatant on NeutrAvidin-coated control wells without sLe^a
# T1 sequence (P02701 25-152 limits assumed): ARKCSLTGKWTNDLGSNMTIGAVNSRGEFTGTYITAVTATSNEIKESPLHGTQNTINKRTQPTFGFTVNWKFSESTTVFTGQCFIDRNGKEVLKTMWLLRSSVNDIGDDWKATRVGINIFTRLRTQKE
row,Binder,OD (490 nm)
1,"5B1 human anti-sLe^a monoclonal antibody (antibody, V domains shown, Human IgG1/lambda; The ADCC assay used recombinant r5B1 made in CHO cells from a full-length IgG1 vector; also called EF41-5B1; EF41-5B1(G)) VH: QVQLVESGGGSVQPGRSLRLSCEASGFTFEAYAMHWVRQPPGKGLEWVSSINWNSGRIAYADSVKGRFTISRDNARNSLYLQMNSLRLEDTAFYYCAKDIRRFSTGGAEFEYWGQGTLVTVSS VL: QSVLTQPPSASGTPGQRVTISCSGSSSNIGSNFVYWYQQLPGTAPKLLIYRNNQRPSGVPDRFSGSRSGTSASLAISGLRSEDEADYYCAAWDDSLGGHYVFGTGTKVTVL",0.05 OD (490 nm)
2,"5H11 human anti-sLe^a monoclonal antibody (antibody, IgG1, V domains shown, Human IgG/lambda (IgG1), tested as hybridoma supernatant; also called EF41-5H11; EF41-5H11(G)) VH: QVQLLESGGGLVQPGRSLRLSCAASGFTFDEYAMHWVRQAPGKGLEWVSSVSWNSGSIGYADSVKGRFTISRDNAKNSLYLQMNSLRAEDTALYYCAKDIRTYSTGGAEFASWGQGTLVTASS VL: QSVLTQPPSASGTPGQRVTISCSGSSSNIGSNYVYWYQQVPGTAPKLLIYRNNQRPSGVPDRFSGSKSGTSASLAISGLRSEDEADYYCAAWDDSLSGHYVFGTGTKVTVL",0.05 OD (490 nm)

# The remaining lines, values ahead:
row,OD (490 nm),Binder
1,0.05 OD (490 nm),"7E3 human anti-sLe^a monoclonal antibody (antibody, V domains shown, Human IgM/kappa, tested as hybridoma supernatant; also called EF41-7E3; EF41-7E3 (M)) VH: QVQLLESGGGVVQPGRSLRLSCAASGFTFSFYGMHWVRQAPGKGLEWVAAISYDGSNKYYADSVKGRFTISRDNSKNTLYLQMNSLRAEDTAVYYCAKRPNQFYCSDGRCYSIDYWGQGTLVTVSS VL: not shown"
2,0.05 OD (490 nm),"9H3 human anti-sLe^a monoclonal antibody (antibody, IgG1, V domains shown, Human IgG/lambda (IgG1), tested as hybridoma supernatant; also called EF41-9H3; EF41-9H3 (G)) VH: EVQLLESGGGLVQPGRSLRLSCAASGFTFDDYVMHWVRQAPGKGLEWVSSISWNSGSIGYADSVKGRFIISRDNAKNSLYLQMNSLRAEDTALYYCAKDRRIRGDSGFEGDYWGQGTLVTVSS VL: not shown"
